Substrate in this data set: Nc1nc(=O)[nH]cc1F
Briefly: steady-state kinetics. In kind it is biochemical, Saccharomyces cerevisiae. The conditions noted are these: Zn2+.

B1: yeast cytosine deaminase (yCD) (Saccharomyces cerevisiae S288C) (protein)
chain: MASKWDQKGMDIAYEEAALGYKEGGVPIGGCLINNKDGSVLGRGHNMRFQKGSATLHGEISTLENCGRLEGKVYKDTTLYTTLSPCDMCTGAIIMYGIPRCVVGENVNFKSKGEKYLQTRGHEVVVVDDERCKKIMKQFIDERPQDWFEDIGE
On to B1, for which the Km was 160 ± 10 µM, the kcat stood at 17 ± 0.4 s⁻¹ and the kcat/Km turned out to be 106000 M⁻¹ s⁻¹.

These data come from publication PMC3272785.
